The values below come from the supplement of paper PMC9170038.

Series [1] deals with MS2 coat protein. Description: apparent KD of MS2 coat protein, switch ON state; designed switch direction (-1 OFF switch, 1 ON switch): -1; higher = weaker reporter binding. The settings on record: FMN input: 0 or 200 uM; Eterna round: R93 (includes R88 designs). A digest of the protocol: (§1)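 SNAP-549-labelled MS2 coat protein was titrated onto designed RNA switches that had been transcribed on-chip from Illumina sequencing clusters. Amounts doubled from 0.7 or 1.5 nM to 3 µM in 100 mM Tris-HCl pH 7.5, 80 mM KCl, 4 mM MgCl2, with constant ligand or without. Apparent KD is the median per design of normalised cluster binding-curve fits.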

The subject of series [2] is MS2 coat protein. Briefly: apparent KD of MS2 coat protein, switch OFF state (with FMN for OFF switches, without FMN for ON switches); designed switch direction (-1 OFF switch, 1 ON switch): -1; higher = weaker reporter binding. The following applies: FMN input: 0 or 200 uM; Eterna round: R93 (includes R88 designs). In short, it runs like this: as §1
Series [3] has as its system MS2 coat protein. Briefly: apparent KD of MS2 coat protein; designed switch direction (-1 OFF switch, 1 ON switch): 1; higher = weaker reporter binding. The settings on record: Eterna round: R95. In short, it runs like this: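 Transcription of designed RNA switches on Illumina chips was done by stalled E. coli RNA polymerase. SNAP-549-labelled MS2 coat protein was then titrated in doubling steps from 0.7 or 1.5 nM to 3 µM, with steps of 0.8–1.5 h at the lowest and 10–20 min at the highest concentration. The per-design median over clusters of curve-fitted normalised fluorescence is reported as apparent KD.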

Where [4] appears, read: input ligand: microRNA oligo, concentration not stated.

With “AAAAAAAAAGGAUAUACAGGAGGUAAGGUCGAAAAAAAAAAACAUGAGGAUCACCCAUGUAGAAGGUUUAAAAA [Excls2-VIII]”, the “apparent KD of MS2 coat protein” value with MS2 coat protein [1] was found to be 27 nM; in the series on MS2 coat protein [2] it was 30.6 nM.
In the same order, the values of “AAAAAAAGAGGAUAUACGUACAUGUCGAAAGACGUGAAGGGACAUGAGGAUCACCCAUGUAGAAGGUUUAAAAA [Mat - Exclusion 2 - JL mod - D84]” are 33.8 nM and 15.8 nM.
For “AAAAAACAUGAGGAUCACCCAUGUAAGGAUAUGCAAGCAAGAAGAAAGAACAGAAAAAGCAGAAGGUACACACA [Amethyst 73]”, the results for the “apparent KD of MS2 coat protein” value with MS2 coat protein [1] and in the series on MS2 coat protein [2] were 22.4 nM and 25 nM, respectively.
Take “AAAAAACAUGAGGAUCACCCAUGUAAGGAUAUGCGAAAAUAAAAUAAAAUAAAAUAAAGCAGAAGGUACAAAAA [66%, Wbt, 1]”: the “apparent KD of MS2 coat protein” value in the series with MS2 coat protein [1] is 32.6 nM; in the series on MS2 coat protein [2], 37.7 nM.
Taken in the same sequence, the figures for “AAAAAACAUGAGGAUCACCCAUGUAAGGAUAUGCUAAAAAACACGGAAAAACGUGAUAGCAGAAGGUACAAAAG [Mat - Exclusion 1 - Eli mod - D87]” were 25.5 nM and 31.2 nM.
Taken in the same sequence, the figures for “AAAAAACAUGAGGAUCACCCAUGUAAGGAUAUGCUCGUGCGAAAAGCACAAAAAAAGAGCAGAAGGUACAAAAA [66%, Wbt, 39]” were 15.2 nM and 33.3 nM.
Taken in the same sequence, the figures for “AAAAAACAUGAGGAUCACCCAUGUAAGGAUAUGUAAAAUAAAAGAAAAAUAAAGAAAAGCAGAAGGUAUAUGUA [JL wbt mod 17]” were 29 nM and 24.7 nM.
Take “AAAAAACAUGAGGAUCACCCAUGUGAGGAUAUGACGUAAAUAAAGAAAGAAGAAAUCGUCAGAAGGCACACCUA [Disincluded 2 (MS2 Riboswitches)]”: the “apparent KD of MS2 coat protein” value was determined as 25.7 nM in the series with MS2 coat protein [1] and 45.7 nM in the series on MS2 coat protein [2].
In the same order, the values of “AAAAAACAUGAGGAUCACCCAUGUGAGGAUAUGCGAAAAAAAAAAUAAAAAAAAAAAAGUAGAAGGUACAAAAA [LROPPY Exclusion 1 - v08_deltaG=5.44]” are 27.9 nM and 26.9 nM.
In the same order, the values of “AAAAAACAUGAGGAUCACCCAUGUUAGGAUAUGCUAUGGAAAAAUAAAAUAAAACAUAGCAGAAGGGACAAAAA [Mat - Exclusion 1 - Eli mod - D28]” are 15 nM and 38.3 nM.
Taken in the same sequence, the figures for “AAAAAAGCAGGAUAUACGAACAUGUCAAAAGACGUGAAGGGACAUGAGGAUCACCCAUGUAGAAGGGUUAAAAA [JL Stem Breaker 5]” were 198 nM and 53.6 nM.
As to “AAAAAGAGAGGAUAUACAUGAGGAUCACCCAUGUGACACAAAAAAAAAAAAAAAAAAUGUAGAAGGCUCAAAAA [65%, Moding Exclusion3-cac2, 18]”, the “apparent KD of MS2 coat protein” value in the series on MS2 coat protein [1] turned out to be 35.5 nM; with MS2 coat protein [2], 97.2 nM.
On to “AAAAAGAUAGGAUAUACAUGAAAAAAAAAAAAAAAAAAAAGACAUGAGGAUCACCCAUGUAGAAGGGUCAAAAA [water's exclusion 2 2nd]”, for which the entries for the “apparent KD of MS2 coat protein” value with MS2 coat protein [1] and in the series on MS2 coat protein [2] were 50.3 nM and 42.1 nM, respectively.
In the same order, the values of “AAAAAGCGAGGAUAUACAUGAGGAUCACCCAUGUGAAAGUCGAAAAAAAAGACAAAAAGUAGAAGGCGCAAAAA [Banishment 7 - Jieux - Exclusion 3]” are 18.3 nM and 22.8 nM.
Take “AAAAAGCGAGGAUAUACGAGUCAAAGAAAAGACAAGGAGAAACAUGAGGAUCACCCAUGUAGAAGGCGCAAAAA [Fiskers exclusion D2]”: the “apparent KD of MS2 coat protein” value in the series with MS2 coat protein [1] was 21.8 nM; in the series with MS2 coat protein [2], 25.3 nM.
For “AAAAAGCUAGGAUAUACGAAAAAAAAGGGUAGAAAAAAAACACAUGAGGAUCACCCAUGUAGAAGGAGCAAAAA [Mat - Exclusion 2 - Tesla mod - D33]”, the “apparent KD of MS2 coat protein” value with MS2 coat protein [1] turned out to be 45.7 nM; with MS2 coat protein [2], 84.6 nM.
As to “AAAAAGGCAGGAUAUGCAUACCCACGGAAAAAAAGGCUGGGACAUGAGGAUCACCCAUGUAGAAGGGCCAAAAA [Dora Explored 12 - Jieux - Exclusion 2]”, the “apparent KD of MS2 coat protein” value was found to be 21.5 nM with MS2 coat protein [1] and 14.5 nM with MS2 coat protein [2].
Turning to “AAAAAGGCAGGAUAUGCAUACCCACGGAAAAAAAGGUUGGGACAUGAGGAUCACCCAUGUAGAAGGGCCAAAAA [Dora Explored 13 - Jieux - Exclusion 2]”, the “apparent KD of MS2 coat protein” value in the series with MS2 coat protein [1] amounted to 43.4 nM; in the series on MS2 coat protein [2] it was 22.4 nM.
As for “AAAAAGGGAGGAUAUGCAUACACACAAAAAAAAAAAAAAAAACAUGAGGAUCACCCAUGUAGAAGGCCCAAAAA [Dora Explored 4 - Jieux - Exclusion 2]”, the “apparent KD of MS2 coat protein” value stood at 21.1 nM with MS2 coat protein [1] and 14.4 nM in the series on MS2 coat protein [2].
As to “AAAAAGUCAGGAUAUACAUGAGGAUCACCCAUGUAGCAUACGAAAAAGAGUGUGCAGUGUAGAAGGGACAAAAA [Exclusion3-cac3]”, the “apparent KD of MS2 coat protein” value stood at 19.5 nM with MS2 coat protein [1] and 21.2 nM in the series with MS2 coat protein [2].
“AAAAAGUCAGGAUAUGCGAAGGCGUCUGAUAGACGAGGCUAGCAGAAGGGACAUGAGGAUCACCCAUGUAAAGA [Mat - Exclusion 4 - D82]”: the “apparent KD of MS2 coat protein” value in the series with MS2 coat protein [1] was found to be 50 nM; with MS2 coat protein [2] it was 51.3 nM.
In the same order, the values of “AAAAAGUCAGGAUAUGUAGCAAAAGGUGAUCAAAAAAAGCUACAGAAGGGACAUGAGGAUCACCCAUGUAAAAA [Ex4: 937]” are 139 nM and 156 nM.
For “AAAAAGUGAGGAUAUACAUGAGGAUCACCCAUGUGAAAUCGGAAAAAAAACGAAAAAAGUAGAAGGCACAAAAA [Fiskers Exclusion 3 D3]”, the “apparent KD of MS2 coat protein” value in the series with MS2 coat protein [1] is 19.1 nM; in the series on MS2 coat protein [2] it was 22.1 nM.
Consider “AAAAAGUGAGGAUAUACAUGAGGAUCACCCAUGUGUUAAAAAAAAAGGGUGGAAGAAAGUAGAAGGCACCAAAA [Ex 3 May 50]”, for which the “apparent KD of MS2 coat protein” value was determined as 33.7 nM in the series with MS2 coat protein [1] and 22.9 nM with MS2 coat protein [2].
For the sequence “AAAAAGUGAGGAUAUACGUUGAAAAAAAAAAAAAAAAAGGCGUAGAAGGCACAUGAGGAUCACCCAUGUAAAAA [Ex4 Malc#5]”, the “apparent KD of MS2 coat protein” value amounted to 56 nM with MS2 coat protein [1] and 77.4 nM in the series on MS2 coat protein [2].
In the same order, the values of “AAAAAGUGAGGAUAUCCAGAUAAAAAAACGAAAAAAAAUCUGGAGAAGGCACAUGAGGAUCACCCAUGUAUGAC [Ex 4 May 6]” are 32.7 nM and 38.2 nM.
Taken in the same sequence, the figures for “AAAAAGUGAGGAUAUGGUAAAAAAAAAAAAAAAAAAAACCUCCAGAAGGCACAUGAGGAUCACCCAUGUAAAAA [Jolly's Folly 2 - Jieux - Exclusion 4]” were 75.8 nM and 34.6 nM.
For “AAAAAGUGAGGAUAUGUCAAAGGUCACGAAAGUGACAAAGGACAGAAGGCACAUGAGGAUCACCCAUGUAAAAA [Fiskers Exclusion 4D1 65% - Early G segment 1]”, the “apparent KD of MS2 coat protein” value worked out at 37.4 nM in the series on MS2 coat protein [1] and 43.6 nM in the series on MS2 coat protein [2].
In the same order, the values of “AAAAAGUGAGGAUAUGUCAAAGGUCACGAAAGUGACAAAGGACAGAAGGCACAUGAGGAUCACCCAUGUGGAAA [Fiskers Exclusion 4D1 65% - Early + late G segment 3]” are 27.3 nM and 27.6 nM.
In the same order, the values of “AAAAAUAGAGGAUAUACAUGAAAAAAAAAAAAAAAAAAAAAACAUGAGGAUCACCCAUGUAGAAGGCUAAAAAA [double AU!]” are 30.8 nM and 29.2 nM.
Taken in the same sequence, the figures for “AAAAAUCGAGGAUAUACAUGAGGAUCACCCAUGUCAAAAAAUGACUACACAAAAGAAAGUAGAAGGCGAUAAAA [Ex 3 May 17]” were 28.5 nM and 31 nM.
For “AAAAAUCGAGGAUAUACAUGAGGAUCACCCAUGUUAGAAAAUGAUUACACAAAAGAAAGUAGAAGGCGAUAAAA [Ex 3 May 20]”, the “apparent KD of MS2 coat protein” value with MS2 coat protein [1] turned out to be 27.9 nM; in the series with MS2 coat protein [2] it was 23.4 nM.
In the same order, the values of “AAAAAUGGAGGAUAUACAUGAGGAUCACCCAUGUGUAAAAAAAAUUACACAAAAGAAAGUAGAAGGCCAUAAAG [Mat - Exclusion 3 - Mayanna mod - D108]” are 59.3 nM and 139 nM.
On to “UUUGGGUGGCUGGAGGAUAUCCUGGUUGUUACAUGAGGAUCACCCAUGUGCCGCGCGGUGCGCUGGGAGAAGGCCGGCGGCCGUU (puzzle: Same State 2)”, for which the “apparent KD of MS2 coat protein” value turned out to be 28.9 nM in the series on MS2 coat protein [3] (input ligand: FMN 200 uM), 61.1 nM with MS2 coat protein [3] (setting [4]) and 141 nM in the series with MS2 coat protein [3] (input ligand: none).
On to “UUUUAUUUUUGGGUGCAAGCUUUUUGCUUACAUGAGGAUCACCCAUGUUUUUAUUUUUUAUUUUUAUUUUUAUUUUU (puzzle: Sensor for hsa-mir-208a)”, for which the “apparent KD of MS2 coat protein” value came out at 51.8 nM with MS2 coat protein [3] (input ligand: FMN 200 uM), 60.3 nM with MS2 coat protein [3] (setting [4]) and 86.7 nM in the series on MS2 coat protein [3] (input ligand: none).
In the same order, the values of “UUUUUUAAGACGAGACAAGCUUUUUGAUCACAUGAGGAUCACCCAUGUCUCGUCUUAUUUUUUUUUUUUUUUUUUUU [BA Sensor hsa-mir-208a - 2 - 3] (puzzle: Sensor for hsa-mir-208a)” are 21.4 nM, 5.76 nM and 16.9 nM.
